From publication PMC12209172, “Poly(ADP-ribose)polymerase 2 is zinc-dependent enzyme and nucleosome reorganizer” (Cellular and Molecular Life Sciences: CMLS, 2025)

Legend:
[1] = target: T1, Nd nucleosomes (Homo sapiens, UniProt Q9UGN5); experiment: Fluorescence microscopy of Nd nucleosomes binding to His-tagged WGR immobilized on Ni-NTA beads; design: species or system chicken; details: beads with immobilized His-tagged WGR vs without
T1 construct: WGR domain of PARP2 (residues 77–220) into pET-15b-TEV expression vector; made in house; host or cells: Escherichia coli Rosetta2 (DE3) pLysS
Procedure: The binding of nucleosomes to the WGR domain was confirmed after immobilization of the protein containing His-tag on the surface of Ni-NTA beads using fluorescence microscopy (Figure S6).
Figure S6. Confocal fluorescence (a, c, e) and transmitted-light (b, d, f) imaging of Ni-NTA beads with (a, b, e, f) or without
(c, d) immobilized 6 ×His-WGR. The beads were additionally incubated with Nd nucleosomes (a, b, c, d). The parameters of
measurements and intensity scales in fluorescent images(a, c, e)are the same. […]

[2] = target: T2, NP nucleosomes (Homo sapiens, UniProt Q9UGN5); experiment: EMSA of WGR domain-nucleosome complexes (0.7% agarose gel); type: binding, chicken; details: no divalent cations or 2 mM Zn2+
T2 construct: WGR domain of PARP2 (residues 77–220) into pET-15b-TEV expression vector; 6xHis (pET-15b-TEV) (N, cleaved yes); made in house; host or cells: Escherichia coli Rosetta2 (DE3) pLysS (WGR)
Procedure: Sample preparation for EMSA was the same as for spFRET microscopy, although a slightly higher concentration of nucleosomes (2–3 nM) was used. […] Electrophoresis was performed under native conditions at 140 V, + 4 °C for ∼1.5 h. The gels were scanned using Amersham Typhoon RGB imager (Cytiva, Sweden). Fluorescence was excited in the gel at the 532 nm wavelength and recorded in the 570–610 nm (Cy3 signal) and 650–700 nm (FRET signal of Cy5) spectral regions. The resulting images were obtained in green (Cy3 signal) and red (FRET signal of Cy5) colors and merged.
Fig. 3 WGR domain of PARP2 binds zinc ions and reorganizes nucleosome structure. (a) A model of Zn^2+ binding to the WGR domain created on the basis of the PDB structure 6F5B. Two putative binding sites are shown. N- and C-terminal ends of the WGR domain are indicated. The numbering of the residues corresponds to the numbering of the complete PARP2 sequence. (b) CD spectra of the WGR domain (60 µM) in a buffer containing no divalent cations (Me^2+) or 0.5 mM Zn^2+ ions. (c) Content of canonical types of secondary structures in the WGR domain of PARP2 according to the analysis of CD spectra of the WGR domain measured in the absence or presence of 0.5 mM Zn^2+ ions. (d) Changes in the fluorescence spectra of tryptophan residues 148, 151 and 188 of the WGR domain (5 µM) at different concentrations of Zn^2+ ions. […]

B1: WGR domain: recombinant WGR domain of PARP2 (residues 77–220) expressed in Escherichia coli (protein, UniProt O88554 77-220, looked up, fragment)
chain: ECAAKLGKAHVYCEGDDVYDVMLNQTNLQFNNNKYYLIQLLEDDAQRNFSVWMRWGRVGKTGQHSLVTCSGDLNKAKEIFQKKFLDKTKNNWEDRENFEKVPGKYDMLQMDYAASTQDESKTKEEETLKPESQLDLRVQELLKL
modifications: WGR domain
notes: recombinant WGR domain of PARP2 (residues 77–220) expressed in Escherichia coli
[1]
  binding of Nd nucleosomes to Ni-NTA beads: strongly increased
[2]
  binding of the WGR domain to nucleosomes: binds to nucleosomes in the presence and absence of Zn^2+ ions
